From patent US11066455B2, “Tmem100 peptides and variants thereof and their use in treating or preventing diseases or conditions” (The Johns Hopkins University, priority 2014, dated 2021)
* marks the point of attachment. Myristoyl = CCCCCCCCCCCCCC(=O)*

Assays:
TRPA1 [1] = target: T1, TRPA1 (Mus musculus, UniProt Q704Y3+Q8BLA8); test: Calcium imaging of DRG neurons, response to mustard oil (MO); format: cell-based; conditions: peptide 200 nM pretreatment; 10 μM MO; IB4-negative DRG neurons
T1 construct: endogenous in cells; host or cells: primary mouse DRG neurons
T1 sequence (Q8BLA8 whole entry): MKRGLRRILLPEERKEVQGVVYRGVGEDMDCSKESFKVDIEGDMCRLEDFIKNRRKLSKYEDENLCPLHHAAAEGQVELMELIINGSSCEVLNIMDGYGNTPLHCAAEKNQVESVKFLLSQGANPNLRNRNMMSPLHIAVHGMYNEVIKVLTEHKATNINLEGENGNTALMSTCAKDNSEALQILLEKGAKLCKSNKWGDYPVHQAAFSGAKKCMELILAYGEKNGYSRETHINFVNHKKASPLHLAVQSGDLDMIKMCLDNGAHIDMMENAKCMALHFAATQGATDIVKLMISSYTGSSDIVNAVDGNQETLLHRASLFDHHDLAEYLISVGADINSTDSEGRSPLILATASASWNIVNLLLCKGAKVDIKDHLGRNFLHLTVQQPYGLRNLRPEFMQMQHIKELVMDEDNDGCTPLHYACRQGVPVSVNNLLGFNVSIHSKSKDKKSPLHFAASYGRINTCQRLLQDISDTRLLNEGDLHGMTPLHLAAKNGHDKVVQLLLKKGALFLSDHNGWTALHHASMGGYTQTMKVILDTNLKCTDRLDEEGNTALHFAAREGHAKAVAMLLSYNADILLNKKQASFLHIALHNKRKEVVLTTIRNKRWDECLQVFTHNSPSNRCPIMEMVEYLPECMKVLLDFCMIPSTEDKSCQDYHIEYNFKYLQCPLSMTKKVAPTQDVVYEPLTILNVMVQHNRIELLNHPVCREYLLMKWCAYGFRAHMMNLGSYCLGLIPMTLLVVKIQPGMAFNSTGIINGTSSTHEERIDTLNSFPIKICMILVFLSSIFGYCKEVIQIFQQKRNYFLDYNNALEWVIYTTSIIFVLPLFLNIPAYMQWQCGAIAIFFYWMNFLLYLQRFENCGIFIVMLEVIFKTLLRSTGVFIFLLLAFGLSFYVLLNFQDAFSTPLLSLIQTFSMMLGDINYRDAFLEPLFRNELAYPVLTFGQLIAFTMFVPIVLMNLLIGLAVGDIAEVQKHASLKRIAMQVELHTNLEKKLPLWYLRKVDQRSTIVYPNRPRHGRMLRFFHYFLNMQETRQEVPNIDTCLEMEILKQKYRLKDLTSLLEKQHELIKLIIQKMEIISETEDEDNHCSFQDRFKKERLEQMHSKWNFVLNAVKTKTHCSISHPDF
T1 sequence (Q704Y3 whole entry): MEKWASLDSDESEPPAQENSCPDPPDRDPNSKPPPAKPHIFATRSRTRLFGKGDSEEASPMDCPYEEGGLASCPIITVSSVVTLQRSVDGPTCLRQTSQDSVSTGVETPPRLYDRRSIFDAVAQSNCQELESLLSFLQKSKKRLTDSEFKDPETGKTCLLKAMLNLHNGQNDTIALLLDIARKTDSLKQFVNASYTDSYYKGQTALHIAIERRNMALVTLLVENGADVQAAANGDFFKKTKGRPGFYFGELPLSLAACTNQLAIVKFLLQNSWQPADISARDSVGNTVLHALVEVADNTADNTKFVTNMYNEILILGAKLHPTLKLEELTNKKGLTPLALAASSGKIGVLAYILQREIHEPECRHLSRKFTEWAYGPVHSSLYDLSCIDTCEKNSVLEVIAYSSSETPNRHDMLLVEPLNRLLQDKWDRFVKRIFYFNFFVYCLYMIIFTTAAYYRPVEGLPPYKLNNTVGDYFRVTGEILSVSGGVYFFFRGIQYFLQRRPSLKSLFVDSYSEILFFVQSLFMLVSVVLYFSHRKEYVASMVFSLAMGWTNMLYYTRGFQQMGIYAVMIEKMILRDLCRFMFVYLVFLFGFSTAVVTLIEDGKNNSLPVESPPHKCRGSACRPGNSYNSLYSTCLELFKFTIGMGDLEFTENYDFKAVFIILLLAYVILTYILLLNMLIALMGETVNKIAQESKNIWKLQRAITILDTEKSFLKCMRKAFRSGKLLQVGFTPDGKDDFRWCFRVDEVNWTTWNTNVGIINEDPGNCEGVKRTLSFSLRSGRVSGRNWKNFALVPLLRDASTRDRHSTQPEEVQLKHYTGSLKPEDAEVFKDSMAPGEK
Method: Calcium imaging assays were performed as previously described (Liu et al., 2009). Cells were loaded with 2 μM fura 2-acetomethoxy ester (Molecular Probes) for 30 min in the dark at room temperature or for 45 minutes at 37° C. for DRG and cell lines, respectively. After washing, cells were imaged at 340 and 380 nm excitation to detect intracellular free calcium under a fluorescent microscope (Nikon Eclipse TE2000-S) and Lambda 10B shutter (Sutter Instrument). The cells were bathed in calcium imaging buffer (pH 7.45, 130 mM NaCl, 3 mM KCl, 2.5 mM CaCl2, 10 mM HEPES, 10 mM glucose, 1.2 mM NaHCO3, with sucrose to increase osmolarity to 290 mOsm). […] Images were processed and analyzed with NIS-Elements BR 2.30 software (Nikon). […] The data was analyzed with the experimenter blinded to the genotypes or constructs transfected.
DRG from 3 to 4-week old mice were collected in cold DH10 medium (90% DMEM/F-12, 10% FBS, 100 U/ml penicillin, and 100 μg/ml Streptomycin, Gibco) and treated with enzyme solution in HBSS containing collagenase (1.65 mg/mL, Worthington CLS I) and dispase (3.55 mg/mL, GIBCO 17105-041) at 37° C. for 30 minutes. […] This efficiency was determined by mCherry(+) divided by total number of cells in the bright fields. […]

[2] = system: CFA-induced hyperalgesia in mice; test: CFA injection: mechanical (von Frey) and thermal (Hargreaves) hyperalgesia; format: in vivo, mouse; conditions: peptide 5 μl of 2 mM; 3 hours after treatment
Method: Mice were placed in a transparent plastic box (4.5×5×10 cm) on a metal mesh and acclimatized for 30 minutes prior to testing. Each mouse was tested more than 5 times at a specific force manually, and the threshold was determined by the lowest force needed to elicit responses more than 50% of the time.
Mice were placed under a transparent plastic box (4.5×5×10 cm) on a glass platform (Plantar Test Apparatus, IITC Life Science). Radiant heat was adjusted to 18% of maximal output and shone on the center of the paws. Each mouse was tested more than 3 times, with each test performed 20 minutes apart.
Mice were injected with 6 μL of 50% emulsified Complete Freund's Adjuvant (Sigma, F5881) in normal saline.
The sequence from the last 28 amino acids of the C-terminus of the Tmem100-3Q mutant protein was synthesized and myristoylated at its N-terminus (myr-[…]-COOH) (SEQ ID NO: 8) by Twentyfirst Century Biochemicals. […] For the calcium imaging assay, the peptides were added to the calcium imaging buffer with a final concentration of 200 nM and incubated for at least […] at room temperature. For the mice behavioral assays, the peptides (5 μL, 2 mM) were injected subcutaneously in the hindpaw at least 30 minutes before testing. For the rat behavior assays, human T100-3Q (h-T100), a palmitoylated cell permeable peptide mutated based on the C terminus of human sequence in Tmem100, was applied. […]

TRPA1 [3] = system: T2, TRPA1; test: MO-evoked Ca2+ influx into CHO cells expressing TRPA1+TRPV1; format: cell-based; conditions: TRPA1+TRPV1+Tmem100-3Q (1:1:4) CHO cells
T2 construct: MO (10 μM)-evoked Ca2+ influx; other: TRPA1+TRPV1+Tmem100-3Q (1:1:4) CHO cells; MO (10 μM)-gated whole-cell current density; other: Vh=-60 mV; TRPA1+TRPV1+Tmem100-3Q (1:1:4) CHO cells; MO (10 μM)-induced single-channel activity (NPo); co-expressed with TRPA1+TRPV1 (1:1:4) in CHO cells
Method: Calcium imaging assays were performed as previously described (Liu et al., 2009). Cells were loaded with 2 μM fura 2-acetomethoxy ester (Molecular Probes) for 30 min in the dark at room temperature or for 45 minutes at 37° C. for DRG and cell lines, respectively. After washing, cells were imaged at 340 and 380 nm excitation to detect intracellular free calcium under a fluorescent microscope (Nikon Eclipse TE2000-S) and Lambda 10B shutter (Sutter Instrument). The cells were bathed in calcium imaging buffer (pH 7.45, 130 mM NaCl, 3 mM KCl, 2.5 mM CaCl2, 10 mM HEPES, 10 mM glucose, 1.2 mM NaHCO3, with sucrose to increase osmolarity to 290 mOsm). The reagents and buffers were applied through a gravity perfusion system at a rate of […], including mustard oil (Sigma 377430), cinnamaldehyde (Sigma C80687), menthol (Sigma M2780), and capsaicin (Sigma M2028). Cells with high baseline 340/380 values (>1.5) were excluded for analysis. For DRG neurons, IB4 staining was performed in the chamber with the dilution of 1:200 (Molecular Probes 121412) for 160 seconds before washing off at the end of each test. Images were processed and analyzed with NIS-Elements BR 2.30 software (Nikon). A responsive cell was defined as one that with greater than a 20% increase in the 340/380 ratio above the baseline. […] The data was analyzed with the experimenter blinded to the genotypes or constructs transfected.

| Molecule | percentage of DRG neurons responding to MO (TRPA1 [1]) | CFA-induced mechanical hyperalgesia (mechanical threshold) [2] | CFA-induced thermal hyperalgesia (latency) [2] | MO (10 μM)-evoked Ca2+ influx (TRPA1 [3]) |
| --- | --- | --- | --- | --- |
| myr-QRVLEQVLQNWSRRANVKQAQKFQVKCT-COOH (Myristoyl-QRVLEQVLQNWSRRANVKQAQKFQVKCT-OH; SMILES CCCCCCCCCCCCCC(=O)N[C@@H](CCC(N)=O)C(=O)N[C@@H](CCCNC(=N)N)C(=O)N[C@H](C(=O)N[C@@H](CC(C)C)C(=O)N[C@@H](CCC(=O)O)C(=O)N[C@@H](CCC(N)=O)C(=O)N[C@H](C(=O)N[C@@H](CC(C)C)C(=O)N[C@@H](CCC(N)=O)C(=O)N[C@@H](CC(N)=O)C(=O)N[C@@H](Cc1c[nH]c2ccccc12)C(=O)N[C@@H](CO)C(=O)N[C@@H](CCCNC(=N)N)C(=O)N[C@@H](CCCNC(=N)N)C(=O)N[C@@H](C)C(=O)N[C@@H](CC(N)=O)C(=O)N[C@H](C(=O)N[C@@H](CCCCN)C(=O)N[C@@H](CCC(N)=O)C(=O)N[C@@H](C)C(=O)N[C@@H](CCC(N)=O)C(=O)N[C@@H](CCCCN)C(=O)N[C@@H](Cc1ccccc1)C(=O)N[C@@H](CCC(N)=O)C(=O)N[C@H](C(=O)N[C@@H](CCCCN)C(=O)N[C@@H](CS)C(=O)N[C@H](C(=O)O)[C@@H](C)O)C(C)C)C(C)C)C(C)C)C(C)C) [scrambled] | 12±1.3% | 0.05 ± 0.0 g | 3.9 ± 0.6 s | – |
| Tmem100-3Q mutant (full-length, mouse) (protein) MTEESTKENLGAPKSPTPVTMEKNPKREVVVTTGPLVSEVQLMAATGGAELSCYRCIIPFAVVVFITGIVVTAVAYSFNSHGSIISIFGLVLLSSGLFLLASSALCWKVRQRNKKVQQQESQTALVVNQRCLFA | – | – | – | 321 ± 18.2 nM |
